Results reported in patent US20060286032A1, “A radiosotope-chitosan complex for treatment of prostate cancer” (priority 2003, published 2006).
“Also recorded” adds a separate entry of the source. Marks after values point to notes of the source that are not given here.

Key:
[1] = Whole-body autoradiography after injection of 25 μl or 50 μl complex solution into the prostate gland; assay type: in vivo, male SD rats
Experimental: After one week acclimation, male SD rats were anesthetized with diethylether, and an about 2-cm midline incision was made in the lower abdomen of the pubis. After the prostate gland was exposed along with the bladder, 25 μl and 50 μl (each about 100 μCi) of the complex solution prepared in Example 2 were individually administered to the prostate gland using a syringe. After the rats were sacrificed 0.5 hr and 6 hrs after administration, cryosections were prepared, and whole-body autoradiography was carried out to measure radioactive concentrations in the liver, spleen, kidney, the end region of the femur, spine and administration sites. The measured radioactive concentrations (% ID/g) in various organs after injection of the complex solution are given in Table 1, below.
Numerals of Table 1 indicate mean+standard deviation (n=3).

[2] = Autoradiography, complex solution versus ^166Ho(NO3)3.5H2O solution not containing chitosan, injected into the prostate gland; assay type: in vivo, rats; conditions: for Radioactive concentration, Administration site / Radioactive concentration, End region of femur / Radioactive concentration, Liver / Radioactive concentration, Spine / Radioactive concentration, Kidney / Radioactive concentration, Spleen: 25 μl (about 100 μCi)
Experimental: To investigate advantages of the ^166Ho-chitosan complex, autoradiography was carried out for a group administered with the complex solution and a control group administered with a ^166Ho(NO3)3.5H2O solution not containing chitosan. In the complex solution administration group, 25 μl of the complex solution was administered, which was equal to about 100 μCi. The control group was administered with a ^166Ho(NO3)3.5H2O solution not containing chitosan with the same dosage and radioactive concentration as in the complex solution administration group. This test was carried out according to the same method as in Experimental Example 1, and each test drug was administered to the prostate gland. After 0.5, 2, 6 and 24 hrs, rats were sacrificed and evaluated by autoradiography. The measured radioactive concentrations (% ID/g) in various organs after injection of the complex solution and the ^166Ho(NO3)3.5H2O solution are given in Table 2, below.

[3] = system: AIT carcinoma (androgen-independent carcinoma cell line); assay: Antitumor effect in AIT subcutaneous tumor model; assay type: in vivo, noble rats; conditions: for Tumor weight: four weeks after administration; for Tumor growth inhibition rate: four weeks, tumor weight vs control
Experimental: To evaluate the effect of the complex on hormone-independent prostate cancer, an AIT carcinoma (androgen-independent carcinoma cell line) was transplanted into noble rats, and the antitumor effect of the complex was examined.
An androgen-independent, prostate carcinoma cell line, AIT, which is derived from noble rats, was cultured in 10% FBS-containing DMEM at 37° under 5% CO2. The cultured carcinoma cells were suspended in sterile physiological saline at a density of 4×10^6 cells/ml, and 2×10^6 cells were subcutaneously transplanted into the lateral abdomen of male 5-week noble rats. When the long axis of the tumor was about 1 cm long (in this test, 14 days after transplantation), the rats were grouped according to the tumor mass. The kit prepared in Example 2 was used as a test drug, and was administered at the same dose as in Experimental Example 5, that is, 0.2 ml. The rats were divided into four groups: a control group (no treatment); two administration groups administered with the complex solution at 10 mCi and 20 mCi per 1 cm^3 tumor; and another administration group administered with a non-radioactive complex solution (Holmium-165 (^165Ho)-chitosan complex solution). Four weeks after administration with the complex solution, tumors were excised from the rats, and tumor growth inhibition rates were measured by weighing the tumors.

[4] = system: AIT prostate carcinoma cells; assay: Antitumor effect in orthotopic tumor model, AIT transplanted into the prostate gland; assay type: in vivo, noble rats
Experimental: In addition to the subcutaneous tumor model tested in Experimental Example 6, the antitumor effect and side effects of the complex solution was examined in an orthotopic tumor model where AIT prostate carcinoma cells had been directly transplanted into the prostate gland. AIT cells were cultured in 10% FBS-containing DMEM at 37° under 5% CO2. The cultured carcinoma cells were suspended in sterile physiological saline at a density of 2×10^6 cells/0.05 ml. After noble rats were anesthetized with fentanyl and the abdomen was opened, 2×10^6 cells per rat were transplanted into the prostate gland of the rats. Seven days after carcinoma transplantation, the rats were randomly allocated. The kit prepared in Example 2 was used as a test drug, and 0.05 ml of the kit was administered. The rats were divided into four groups: a control group (no treatment); two administration groups administered with 0.5 mCi and 1.0 mCi of the complex solution; and another administration group administered with a non-radioactive complex solution (Holmium-165 (^165Ho)-chitosan complex solution). Two and four weeks after administration of the complex solution, the rats were sacrificed, and tumors were excised from the rats and weighed.

[5] = Histopathological examination of organs of rats of the orthotopic model (hematoxylin and eosin); assay type: in vivo, noble rats; conditions: for Histopathological changes in organs other than the tumor tissue (heart, lung, liver, kidney, spleen, testes, epididymis, seminal vesicle, bladder, rectum): last day of the test
Text: (§1) From all rats tested in Experimental Example 7, which were sacrificed on the last day of the test, the heart, lung, liver, kidney, spleen, testes, epididymis, seminal vesicle, bladder, rectum and tumor tissues were excised, embedded in paraffin according to general tissue processing, and sectioned into a thickness of 3 μm. The tissue sections were subjected to double staining with hematoxylin and eosin and histopathologically examined.

[6] = system: AIT tumor transplanted into the prostate gland; assay: Histopathological examination of tumor tissue of rats of the orthotopic model (hematoxylin and eosin); assay type: in vivo, noble rats
Text: as §1

[7] = 0.5 mCi, four weeks after administration (FIG. 2 C and D)

## Holmium-166 (^166Ho)-Chitosan Complex [complex solution]
[1]; 25 μl administration, 30 min
  Radioactive concentration, Administration site: 4258 ± 732.9 % ID/g
  Radioactive concentration, End region of femur: 0.05 ± 0.030 % ID/g
  Radioactive concentration, Spine: 0.02 ± 0.009 % ID/g
[1]; 25 μl administration, 6 hrs
  Radioactive concentration, Administration site: 4478 ± 1212.4 % ID/g
  Radioactive concentration, End region of femur: 0.16 ± 0.047 % ID/g
  Radioactive concentration, Kidney: 0.01 ± 0.002 % ID/g
  Radioactive concentration, Liver: 0.04 ± 0.015 % ID/g
  Radioactive concentration, Spine: 0.04 ± 0.011 % ID/g
  Radioactive concentration, Spleen: 0.03 ± 0.007 % ID/g
[1]; 50 μl administration, 30 min
  Radioactive concentration, Administration site: 3196 ± 212.5 % ID/g
  Radioactive concentration, End region of femur: 0.05 ± 0.030 % ID/g
  Radioactive concentration, Kidney: 0.02 ± 0.011 % ID/g
  Radioactive concentration, Liver: 0.01 ± 0.007 % ID/g
  Radioactive concentration, Spine: 0.02 ± 0.007 % ID/g
[1]; 50 μl administration, 6 hrs
  Radioactive concentration, Administration site: 3054 ± 1873.0 % ID/g
  Radioactive concentration, End region of femur: 0.10 ± 0.065 % ID/g
  Radioactive concentration, Kidney: 0.01 ± 0.001 % ID/g
  Radioactive concentration, Liver: 0.03 ± 0.008 % ID/g
  Radioactive concentration, Spine: 0.04 ± 0.018 % ID/g
  Radioactive concentration, Spleen: 0.02 ± 0.014 % ID/g
[1]; 6 hrs after administration
  Radioactivity detected in the administration site: over 90%
  Radioactivity in major organs including the liver, spleen and kidney: no radioactivity was detected
[1]; 6 hrs after administration, listed as radioisotope-chitosan complex
  Radioactivity in major organs including the liver, spleen and kidney: rarely detected
[2]; 30 min
  Radioactive concentration, Administration site: 4149 ± 1563.2 % ID/g
  Radioactive concentration, End region of femur: 0.04 ± 0.015 % ID/g
  Radioactive concentration, Liver: 0.01 ± 0.004 % ID/g
  Radioactive concentration, Spine: 0.01 ± 0.002 % ID/g
[2]; 2 hrs
  Radioactive concentration, Administration site: 3246 ± 764.0 % ID/g
  Radioactive concentration, End region of femur: 0.07 ± 0.013 % ID/g
  Radioactive concentration, Liver: 0.016 % ID/g
  Radioactive concentration, Spine: 0.02 ± 0.004 % ID/g
[2]; 6 hrs
  Radioactive concentration, Administration site: 4815 ± 1177.4 % ID/g
  Radioactive concentration, End region of femur: 0.21 ± 0.101 % ID/g
  Radioactive concentration, Kidney: 0.02^b % ID/g
  Radioactive concentration, Liver: 0.04 ± 0.024 % ID/g
  Radioactive concentration, Spine: 0.05 ± 0.024 % ID/g
  Radioactive concentration, Spleen: 0.03 ± 0.027 % ID/g
[2]; 24 hrs
  Radioactive concentration, Administration site: 3998 ± 705.1 % ID/g
  Radioactive concentration, End region of femur: 0.55 ± 0.324 % ID/g
  Radioactive concentration, Kidney: 0.03 ± 0.016 % ID/g
  Radioactive concentration, Liver: 0.04 ± 0.004 % ID/g
  Radioactive concentration, Spine: 0.14 ± 0.070 % ID/g
  Radioactive concentration, Spleen: 0.04 ± 0.010 % ID/g
[2]; 24 hrs after being administered
  Radioactivity retained in the administration site, the prostate gland: ~90%
[3]; 10 mCi per 1 cm^3 tumor
  Tumor weight: 2.1 ± 0.78 g
  Tumor growth inhibition rate: 90.7%
[3]; 20 mCi per 1 cm^3 tumor
  Tumor weight: 0.7 ± 0.18 g
  Tumor growth inhibition rate: 96.7%
[3]; subcutaneous tumor model
  Inhibitory activity against the tumor growth: higher than 90%
[4]; 0.5 mCi, 2 wks after administration
  Tumor weight: 0.45 ± 0.07 g
[4]; 0.5 mCi, 4 wks after administration
  Tumor weight: 1.58 ± 0.97 g
[4]; 1.0 mCi, 2 wks after administration
  Tumor weight: 0.49 ± 0.08 g
[4]; 1.0 mCi, 4 wks after administration
  Tumor weight: 1.09 ± 0.32 g
[4]; two weeks after administration, listed as present complex
  Effect on tumor growth: showed an inhibitory effect against the tumor growth; also recorded: the tumor growth was suppressed
[5]; listed as present complex solution
  Histopathological changes in organs other than the tumor tissue (heart, lung, liver, kidney, spleen, testes, epididymis, seminal vesicle, bladder, rectum): no abnormalities in adjacent organs were found
[5]; listed as radioisotope-chitosan complex
  Histopathological changes in organs other than the tumor tissue (heart, lung, liver, kidney, spleen, testes, epididymis, seminal vesicle, bladder, rectum): particular histopathological changes are not found
[5]; rat, in vivo
  Cellularity of the bone marrow and peripheral blood: not reduced
[6]; [7]
  Histopathology of the tumor, center of injection site: broad necrosis
  Tumor cells in injection site: all of tumor cells in injection site are necrotized
[6]; last day of the test
  Histopathology of the tumor tissue at the administration site: a large necrosis
